Data reported in patent US20140134179A1 (Novartis, published 2014).
One block for each binder: values may come before it.

Tests used:
[1] = biological target: T1, flag-tagged human TEM8 on 293 cells (293/Flag-hTEM8) (human, UniProt Q9H6X2 33-564); experiment: immunofluorescence and flow cytometry on 293/Flag-hTEM8 cells
T1 construct: also called 293/Flag-huTEM8; 293/hFlag-TEM8

[2] = biological target: T2, mouse TEM8 on 293 cells (293/mTEM8) (mouse, UniProt Q9CZ52 31-562); experiment: flow cytometry on 293/mTEM8 cells (FIG. 8C)
T2 construct: whole, on cells

[3] = biological target: T3, hTEM8(ED)-Fc fusion protein (human; mouse, UniProt Q9H6X2 33-321); experiment: ELISA on biotinylated human TEM8-Fc captured on neutravidin
T3 construct: also called TEM8-Fc; human TEM8-Fc
T3 sequence: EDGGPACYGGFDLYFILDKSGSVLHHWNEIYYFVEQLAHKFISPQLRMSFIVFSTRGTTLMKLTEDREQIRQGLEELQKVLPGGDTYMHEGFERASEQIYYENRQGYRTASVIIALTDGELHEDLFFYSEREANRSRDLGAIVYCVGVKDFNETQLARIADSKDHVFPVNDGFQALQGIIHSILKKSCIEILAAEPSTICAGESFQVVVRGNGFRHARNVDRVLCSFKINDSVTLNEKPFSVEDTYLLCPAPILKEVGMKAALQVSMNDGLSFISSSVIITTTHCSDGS

[4] = biological target: T1, flag-tagged human TEM8 on 293 cells …; experiment: flow cytometry titration on 293/Flag-hTEM8 cells, FITC anti-mouse secondary (FIG. 9B)

binding result [1]: binds | binding result [2]: binds | binding result [3]: binds
B1: L1 Fab (Fab, V domains shown)
VH: QVQLVESGGGLVQPGGSLRLSCAASGFTFNSYAMSWVRQAPGKGLEWVSLISSGSSTYYADSVKGRFTISRDNSKNTLYLQMNSLRAEDTAVYYCARAGFKFDNWGQGTLVTVSS
VL: DIELTQPPSVSVAPGQTARISCSGDSIPNYSVSWYQQKPGQAPVLVIYADSNRPSGIPERFSGSNSGNTATLTISGTQAEDEADYYCQSYDNTSPDLVFGGGTKLTVLG

EC50 [4]: 2.8 nM
B2: L5-mIgG2a (antibody, V domains shown)
VH: QVQLVESGGGLVQPGGSLRLSCAASGFTFNSYGLSWVRQAPGKGLEWVSNISSNGSYTYYADSVKGRFTISRDNSKNTLYLQMNSLRAEDTAVYYCARAGYGLFDVWGQGTLVTVSS
VL: DIELTQPPSVSVAPGQTARISCSGDKLREYYVHWYQQKPGQAPVLVIYGDNKRPSGIPERFSGSNSGNTATLTISGTQAEDEADYYCSSWAGSRSGTVFGGGTKLTVL
notes: also called L5 full IgG
